Measured values as given in the nanobody polyreactivity screen of Harvey et al. (2022).

Assay: yeast display, Sf9 membrane polyspecificity reagent, FACS + sequencing; frameworks hold sequencing errors
How it was run: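 Using colony PCR, genes from sorted yeast display clones were amplified, then sequenced on MiSeq at 2 × 250 and filtered by CDR length. The clones had been stained with 10% biotinylated, detergent-solubilized Sf9 membrane reagent for 1 hour at 4 °C and sorted by FACS into low and high (top ~1%) gates on anti-HA and streptavidin fluorescence. Polyreactivity labels come from the gate of origin.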

Sequence: QVQLLESGGGLVQAGGILRLSCAASGRIIVYYAMGWYRQAPGKERELVAAITRGGSTKYADSVKGRFTISRDNAKNTVYLQMNSLKPEDTAVYYCATATSRRSGYDYWGQGTQVSVSS
- polyreactivity (PSR sort gate): high polyreactivity

Sequence: QVQLVESGGGLVQAGGSLRLSCAASGSIFDVYAMGWYRQAPGKERELVAAITFSGGSTYYADSVKWRFTISRDNAKNTVYLQMNSLNPEDTAVYYCSVSRSYLYPVYGYYTWLGDYWGQGTQVTVSS
- polyreactivity (PSR sort gate): low polyreactivity

Sequence: QVQLVESAGGLVQAGGSLRLSCAASGSIFYRNVMAWYRQAPGQERELVAAITWSGGSTYYADSVKGRFTISRDNAKNTVYLQMNSLKPEDTAVYFCAAASKATYRGKVSGYYYWGQGTQVTVSS
- polyreactivity (PSR sort gate): high polyreactivity

Sequence: QVQLVESGGGLVQAGGSLRLSCAASGRIFPAYAMGWYRQAPGKERELVAAITWTGGRTYYADSVKGRFTISRDNAKNSFYLQMNILKPEDTAVYYCAKAPARSRGYEYWGQGTQVTVSS
- polyreactivity (PSR sort gate): low polyreactivity

Sequence: QVHLVESGGGLVQAGGSLRLSCAASGNIIPGNAMGWYRQAPGKERELVAAISYSGVRTHYADSVKGRFTISRDNAKNTVYLQMNSLKPEDTAVYYCAASGEQDYDYWGQGTQVTVSS
- polyreactivity (PSR sort gate): low polyreactivity

Sequence: QVQLVESGGGLVQAGGSLRLSCAASRRTFSQYAMGWYRQAHGKERELVAAITSARSTYYADSVKGRFTISRDNAKNTVYLQMNSLKPEDTAVYYCAAYIRFRSNWGQGTQVTVSS
- polyreactivity (PSR sort gate): high polyreactivity

Sequence: QVQLVESGGGLVQAGGSLSLICAASGRIFLRNDMGWYRQAPGKERELVAGISSDGSTYYADSVKGRFTISRDNAKNTVYLQMNSLKPEDTAVYYCAAERWGNPTDYQFWRPYDYWGQGTQVNVSS
- polyreactivity (PSR sort gate): low polyreactivity

Sequence: QVQLVESGGGLVQAGGSIRLSCAASGRTFIYNVMGWYRQAPGKERELVAAISSGGNTNYADSVKGRFTISRDNAKNTVYLQMNSLKPEDPAVYYCNARWPLGVSRGGMGYWGQGTQVTVSS
- polyreactivity (PSR sort gate): high polyreactivity

Sequence: QVQLVESGGGLIQAGGSLRLRCAASGSTFPYYAMGWYRQAPGKEREFVAAIRFSGSSTYYADSVKGRFTISRDNAKNTVFLQMNRLIPEDTAVYYCATDYWLPSYSYDYWGQGTQVTVSS
- polyreactivity (PSR sort gate): low polyreactivity

Sequence: QVQLVESGGGLVQAGGSLRLSCAASGITFIVNTMGWYRQAPGKEREFVATISANSDGTYYADSVKGRFTISRDIAKNTVYLQKNSLKPEDTAVYYWGQGTQVTVSS
- polyreactivity (PSR sort gate): low polyreactivity

Sequence: QVQLVESGGGLVQAGGSLRLSCAASGSTFYYYAMGWYRQAPGKERELVAAINSGGRTNYADSVKGRFTISRDNAKNTVYLQMNSLKPEDTAVYSCARDGYHRDYDYWGQGTQVTVSS
- polyreactivity (PSR sort gate): low polyreactivity

Sequence: QVQLVESGGGLVQAGGSLRLSCAASGSTFRIYAMGWYRQAPGKERELVAAISSGGRTNYADSVKGRFTISRDNAKNNVYLQMNSLKPEDTAVYYCNAVFLPTYHFDYWGQGTQVTVSS
- polyreactivity (PSR sort gate): high polyreactivity

Sequence: QVQLVESGGGLVQAGGSLRLSCAASGSIFTDNAMGRYRQAPGKERELVAAITSNGGSTYYADSVKGRFTISRDNAKNTVYLQMNSLKPEDTAVYYCAADSLYREDDYWGQGTQVTVSS
- polyreactivity (PSR sort gate): low polyreactivity

Sequence: QVQLVESGGGLVQAGGSLRLSCAASGGIFTPYAMGWYIQAPGKEREFVAGIRWSGVSTSYADSVKGRFTISRDNAKNTVYFQMNSLKPEDTAVSYCAATTHRWWVTFDYWGQGTQVTVSS
- polyreactivity (PSR sort gate): low polyreactivity

Sequence: QVQLVESGGGLVQAGGSLRLSCASSGGTFVTNAMGWYRQAPAKERELVAAISYDGGITYYADSVKGRFTISRDNAKNTVYLKMNSLKPEDTAVYYGAAYRRYRNWFNYWGQGTQVTVSS
- polyreactivity (PSR sort gate): high polyreactivity

Sequence: QVQLVESGGGLVQAGGSLRLSCAASGLTFGGYVMGWYRQAPGKERELVAAISGSGGRTYYADSVKGRFTISRDNAKNTVYLQRNSLKPEDTAVYDCARPPRGPPRGYYWGQGTQVTVSS
- polyreactivity (PSR sort gate): high polyreactivity

Sequence: QVQLVESGGGLVQAGGSLRLSCAASGLTFWFNAMGWYRPAPGKERALVGAIRNRGGSTYYADSVKGRFTISRDTAKNTVYLQMNSLKPEDTAVYYCAAVSWFLVGPRYYYWGQGTQVTVSS
- polyreactivity (PSR sort gate): high polyreactivity

Sequence: QVQLVQSGGGLVQAGGSLRLSCAASGSTFYQYAMGWYRQSPGKERELVAAISRSGSTNYADSVKGRFTHSRDNAQNTVYLQMNSMKPEDSAVYYCAARLGTRQYKMDYWGQGTQVTVSS
- polyreactivity (PSR sort gate): high polyreactivity

Sequence: QVQIVESGGGLVQAGRSLSLSCAASGYTFLPNVMGWYRQAPGKERELVAAIYSRGGRTYYADSVKGRFTISRDNAKNTVYLQMNSLKPEDTAVYYCAAYTRYTTGSAGIYRDDYWGQGTQVTVSS
- polyreactivity (PSR sort gate): high polyreactivity

Sequence: QVQLVESGGGLVQAGGSLRLRCAASGLIFARNAMGWYRHAPGKERELVAAISRRGGSTYYADSVKGRFTISRDNAKNTVYLQMNSLKPEDTAVYYCAADTPYWQSSKYDYWGQGTQVTVSS
- polyreactivity (PSR sort gate): high polyreactivity

Sequence: QVQLVESGGGLVQAGGSLRLSCAASGFIFGNYAMGWYRQAAGNERELVAAISQRGGTTYYADSVKGRFTISRDNAKNTVYLQMNSLKPEDTAVYYCKAYYIGYYVDYEYWGQGTQVTVSS
- polyreactivity (PSR sort gate): high polyreactivity

Sequence: QVQLVESGGGLVQAGGSLRLSCAASGSTFRLYAMGWYRQAPGKERELVAAISSRGGTTYYADSVKGRFTISRDNAKNTVYLQMNSLKPEDTAVYYCAAPRASQYGDDYWGQGTQVTVSS
- polyreactivity (PSR sort gate): high polyreactivity

Sequence: QVQLVESGGGLVQAGGSLRLSCAASGSTFSFNAMGWYRQAPGKERELVAAITYSGGDTYYADSVKGRFTISRDNAKNTVYLQMNSLKPEDTAVYYCAAKIPRPYAMDYWGQGTQVTVSS
- polyreactivity (PSR sort gate): low polyreactivity

Sequence: QVQIVESGGGLVQAGGSLRLSCAASGSIFVVNAMGWYRQAPRKERELVAAIDWSGDTTYYADSEKGRFTISRDYAKNTVYFQMNSLKPEDTAVYYCAAEYEFHEYDYWGQGTQVTVSS
- polyreactivity (PSR sort gate): high polyreactivity

Sequence: QVQLVESGGGLVQAGGSLRLSCAASGRIFGGYAMGWYRQAPGKERELVAAIRWSGGSTYADSVKGRFTISRDNAKYTVYLQMNSLKPEDTAVYYCNTVRSPPGHDYWGQGTQVTVSS
- polyreactivity (PSR sort gate): low polyreactivity

Sequence: QVQHVESGGGIVQAVGSLRLSCAASGSIFYYNAMGWYRQAPGKERELVAAISSGGSTYYADSVKGRFTISRDNAKNTVYLQMNSLKPEDTAVYYCAAKPAFRYLYSRYYPELGGYWGQGTQVTVSS
- polyreactivity (PSR sort gate): high polyreactivity

Sequence: QVQLVESGGGLVQAGGSLRLSCAASGSTFDTYAMGWYRQAPGKERELVAAISRSGTSTYYADSVKGRFTISRDNAKNTVYLQMKSLKPEDTAVYYCAAYGPRVNGEIGREYYYWGQGTQVTVSS
- polyreactivity (PSR sort gate): low polyreactivity

Sequence: QVQLVESGGGLVQAGGSLRLSCAASGNTFYYAMGWYTQAPGKERELVASIRTGGSTNYADSVKGRFTISRDNAKNTVYLQMNSLKPEDTAVYYCNRDGTYSHTGWDYWRPYEYWGQGTQVTVSS
- polyreactivity (PSR sort gate): low polyreactivity

Sequence: QVQLVESGGGLVQAGGSLRLSCAASGRTFVFYTMGWYRQAPGKERELVAAINSRGGRTYYADSVKGRFTISRDNAKNPVYLQMNSLKPEDTAVYYCNAAFYVTDHDYWGKGTQVTVSS
- polyreactivity (PSR sort gate): high polyreactivity

Sequence: QVQLVESGGGLVQAGGSLRLSCAASGITFVWNAMGWYRQAPGKVREFVAGITYRSGRTYYADSVKGRFTISRDNAKNTVYLQMNSLKPEETAGYYCATTPRYTTYNYWGQGTQVTVSS
- polyreactivity (PSR sort gate): high polyreactivity

Sequence: QVQLVESGGGLVQAGGSLRLSCAASGRTFGRYTMGWYRQAPGKERELVAAITGRGGSTFYADSVKGRFTISRDNAKNTVYLQMNSLKPEDTAVYYCAARRTSIKDQFYYWGQGTQVTVSS
- polyreactivity (PSR sort gate): high polyreactivity

Sequence: QVQLVESGGGLVQAGGSLRLSCAASGSISVANAMGWYRQAPGKERELVAAITDSGDDTYYADSVKGRFTISRDTAKNTVYLQMNSLKPEDTAVYYCAVEAWSVPPYDYWGQGTQVTVSS
- polyreactivity (PSR sort gate): low polyreactivity
